The source of these data is the RNAGym collection of RNA variant scans (doi:10.1073/pnas.2313332121).

Fewer inactive variants are shown than the library holds. Where only a bound is given, the exact number is not on record here.

The chains are these.
B1: TPR 5TU (parent)
chain: GGAUCUUCUCGAUCUAACAAAAAAGACAAAUCUGCCACAAAGCUUGAGAGCAUCUUCGGAUGCAGAGGCGGCAGCCUUCGGUGGCGCGAUAGCGCCAACGUUCUCAACUAUGACACGCAAAACGCGUGCUCCGUUGAAUGGAGUUUAUCAUG

In this data set the parent is B1. Briefly: polymerase ribozyme fitness, log enrichment relative to wild type (log ratio); higher = more active; in vitro selection for triplet polymerase activity. The method in brief: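 Fitness is a logarithmic measure of how a genotype enriched relative to the wild type, with replicate averages weighted by inverse variance. The logarithm uses base 2, and enrichment came from Illumina sequencing of input and output libraries. Those libraries were PCR-built, transcribed mutants of each subunit of a heterodimeric triplet polymerase ribozyme, passed through one triplicate in vitro selection round that included frozen incubation at −7 °C, gel excision of extended constructs and streptavidin-bead capture. Genotypes were kept only if they had ≥10 input reads and ≥1 read per output.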
Take GGAUCUUCUCGAUCUAACAAAAAAGACAAAUCUGCCACACAGCUUGAGAGCAUCUUAGGAUGCAGAGACGGCAGCCUUCGGUGGCUCGAUAGCGCCAACGUUCUCAACUAUGACACGCAAUACGCGUGCUCCGUUGAAUGGAGUUUAUCAUG: the “polymerase ribozyme fitness (log ratio)” value was at most -4.2. For GGAUCUUCUCGACCUAACAAAAAAGACAAAUCUGCCACAAAGCAUGAGAGCAUCUUCGGAUGCAGAGGCGGCAGCCUUCGGUGGCGAGAUAGCGCCAACGUUCUCAACUAUGACACGCAAAACGCUUGCUCCGUUGAAUGGAGUUUAUCAUG the value was at most -4.2; for GGAUCUUCUCGAUCUAACAAAAAAGACAAAUCUGCCACAAAGCUUAAGAGCAUCUUCGGAUGCAGAGGCGGCAGCCUUCGGUGGCGCGAUAGCCCCAACGUUCUCAACUAUGACACGCAAAACGCGUGCUCCGUUGAAUGGAGUUUAUCAUG, -1.05; for GGAUCUUCUCGAUCUAACAAAAAAGACAAAUCUGCCACAAAGCUUUAGAGCAUCGUCGGAUGCAGAGGCGGCAGCAUUCGGUGGCGCGGUAGCGCCAACGUUCUCUACUAUGACACGCAAAACGCGUGCUCCGUUGAAUGGAGUUUAUCAUG, at most -4.2.

Take GGAUCUUCUCGAUCUAACAAAAAAGACAAAUCUGCCACAAAGCUUAAGACCAUCAACGGAUGCAGAGGCGGCAGCCUUCGGUGGCGUUAUAGCGCCAACGUUCUCAACUAUGACACGCAAAACGAGUGCUCCGUUAAAUGGAGUUUAUCAUG: the “polymerase ribozyme fitness (log ratio)” value is at most -4.2. Take GGAUCUUCUCGAUCUAACAAAAAAGACAAAUCUGCCACACAGCUUGAGAGCAUCUUCGGAUGCAGAGGCGGCAGCAUUCGGUGGCGCGAUAGCGCCAACGUUCUCAACUAUGACACGCAAAACGCGUGCUCCGUUGAAUGGAGUUUAUCAUG: the “polymerase ribozyme fitness (log ratio)” value is -2.59. On to GGAUCUUCUCGAUCUGACAAUAAAGACAAAUCUGCCACAAAGCUUGAGAGCAUCUUCGGAUGCAGAGGCGGCAGCCUUCGGUGGCGCGAUAGCGCCGACGUUCUCAACUAUGACACGCAAAACGCGUGCUCCGUUGAAUGGAGUUUAUCAUG, for which the “polymerase ribozyme fitness (log ratio)” value is -1.74. In the case of GGAUCUUCUCGAUCUAACAAUAAAGACACUUAUGCCACAAAGCUUGAGAGCAUCUUCGGAUGCAGAGGCGGCAGCCUUCGGUGGCACGAUAGCGCCAAUGUUCUCAACUAUGACACGUAAAACGCGUGCUCCGAUGAAUGGAGUCUAUGAUG it was at most -4.2; in that of GGGUCUUCUCGAUCUAACAAAAAAGACAAAUCUGCCACAAAGCUUGAGAGGCUCUUCGGAUGCAGAGGCGGCAGCCUUCGGUGUCGCGAUAGCGCCAACGGUCUCAGCUAUGACACGCAAAACGCGUGCUCCGUUGAAUGGAGUUUAUCAUG, at most -4.2; in that of GGAGCUUCUCGAUCUAACAAAAAAGACAAAUCUGCCACAAAGCUUGAGAGCAUCUUCGGAUGCAGAAGCGGCAGCCUUCGGUGGUGCGAUAGCGCCAACGUUCUCAACUAUGACAAGCAAAUCGCGUGCUCCGUUGAAUGGAGUUUAUCUUC, at most -4.2. For GGAUCUUCUCGAUCUAACAAAAAAGACAAAUCUGCCACAAGGCUUGAGAGCGUCUUCGGAUGCAGAGGCGGCAGCCGUCGGUGGCGUGAUAGCGCCAACCUUGUCAACUAUGACACGCAAAACGCGUGCUCCGUUGAGUGGAGUUUAUCAUG the value was at most -4.2; for GGAUCUUCUCGAUCUAACAAAAAAGACAAAUCUGCCACAAAGCUUGAGAGCAUCUUCGGAUCCAGAGGCGGCAACCUUCGGUAGCGCGAUAGCGCCAACGUUCUCAACUAUGACACGCAAAACGAGUGCUCCGUUGAAGAGAGUUUAUCAUG, at most -4.2; for GGAUCUUCUCGAUCUAACAAAAAAGACAAAUCUGCCACAAAGCUUGAGAGCAUCUUCUGAUGCAGAGGCGGCAGCCUUCGCUGGCGCGAUAGGGCCAACGUUCUCAACUAUGACACGCAAAACGCGUGCUCCGUUGAAUGGAGUUUAUCAUG, -3.21. In the case of GGAUCUUCUCGAUCUAACAAACAAGACAAAUCUGCCACAAAGCUUGAGAGCAUCUUCGGAUGCAGAGGCGGCAGCCUUCGGUGGCGUGAUAGCGCCAACGUUCUCAACUAUGACACGCAAAAGGCGUGCUCCGUUGAAUGGAGUUUAUCAUG it was -0.845; in that of GGAUCUUCUCGAUCUAACAAAAAAGACAAAUCUGCCACAAAGCUUGAGAGCAUCUUCGGUUGCAGAGGCGGCAGCCUUCGGUGGCGCGAUAGCGCCAACGUUCUCAACUAUGACACGCAAAACGCGUGCUCCGUUGAAUGAAGUUUAUCAUG, -0.304.

For the variant GGAUCUUCUCGAUCUAACGAAAAAGACAAAUCUGCCACAAAGCUUGAGAGCAUCUUCGGAUGCAGAGGCGGCAGCCUUCGGCGGCGCGAUAGCGCCAACGUUCUCAACUAUGACAUGCAAAACGAGUGCUCCGUUGAAUGUAGUUUAUCAUG, the “polymerase ribozyme fitness (log ratio)” value is at most -4.2. In the case of GGAUCUUCUCGAUCUAACAAAAAAGACAAAUCUGCCACAAAGCUUGCGAGCAUCUUCGGAUGCAGAGGCGGCAGCCUUCGGUGGAGCGAUAGUGCCAACGUUCUCAACUAUGACACGCAAAACGCGUGCUCCGUUGAAUGGAGUUUAUCAUG it was at most -4.2; in that of GGAUCUUCUCGAUCUAACAAACAAGACAAAUCUGCCACAAAGCUUGAGAGCAUCUUCGGAUGCAGAGGCGGCAGCCUUCGGUGGCGCGAUAGCGCCAGCGUUCUCAACUAUGACACGCAAAACGCGUGCUCCGUUGAAUGGAGUUUAUCAUG, -0.486; in that of GGAUCUUCUCGAUCUAACAAAAAAGACAAAUCUGCCACAAAGCUUGAGAGCGUCUUCGGAUGCAGAGGGGCCAGCCUUCGGUGGCGCGAUAGCGCCAACGUUCUCAACUAUGACACGCAAAACGCGUGCUCCGUUGAAUGGAGUUUAUCAUG, -2.11. For GGAUCUUCUCGAUCUGACAAAAAAGACAAAUCUGCCACAAAGCUUGAGAGCAUCUUCGGAUGCAGAGGCGGCAGCCUUCGGUGGCGCGAUAGAGCCAACGUUCUCAACUAUGACACGCAAAACGCGUGCUCCGUUGAAUGGAGUUUAUCAUG the value was -2.12; for GGAUCUUCUCGAUCUAACAAAAAAGACAAAUCUGCCACAAAGCUUGAGACCAUCUUCGGAUGCAGAGGCGGCAGCCUUCGGUGGCGCGAUAGCGCUAACGUUCUCAACUAUGACACGCAAAACGCGUGCUCCGUUGAAUGGAGUUUAUCAUG, -2.14.

With GGAUCUUCUCGAUCUAACAAAAAAGACAAAUCUGCCACAAAGCUUGAGACCAUCUGCGGAUGCGGAGGCGGCAGCCUUCGGUAGCGCGAUAGCGCCAACGUUCUGAACGAUGACACGCAAAACGCGUGCUCCGUUGAAUGGAGUUUAUCAUG, the “polymerase ribozyme fitness (log ratio)” value is at most -4.2. On to GGAUCUUCUCGAUUUAACAAAAAAGACAAAUCUGCCACAAAGCAUGAGAGCAUCUUACGAUGCAGAGGCGGCUGCCUUCGGUCGCGCGAUUGCGCCAACGUUCUCAACUAUGACACGCAAAACGCGUGCUCCGUUGAAUGGAGUUUAUCAUG, for which the “polymerase ribozyme fitness (log ratio)” value is at most -4.2. For GGAUCUUCUCGAUCUAACAAAAAAGACAAAUCUGCUACAAAGCUUGAGAGCAUCUUCGGAUGCAGAGGCGGCAGCCUUCGGUGGUGCGAUAGCGCCAACGUUCUCAACUAUGACACGCAAAACGCGUGCUCCGUUGAAUGGAGUUUAUCAUG the value was -1.83. For the variant GGAUCUUCUCGAUCUAACAAAAAAGACAAAUCUGCCACAAAGCUUGAGAGCAUCUUCGGAUGCAGAGGCGGCAGCCUUCGGUGGCGCGAUAGUGCCAACGUUCUCAACUAUGACACGCAGAACGCGUGCUCCGUUGAAUGGAGUUUAUCAUG, the “polymerase ribozyme fitness (log ratio)” value is -0.649.

For GGAUCUUCUCGAUCUAACAAAAAAGACAAAUCUGCCACAAAGCUUGAGAGCAUCUUCGGAUGCAGAGGCGGCAGCCUUCGGUUGCGCGAUAGCGCCAACGUUCUCAACUAUGACAUGCAAACCGCGUGCUCCGUUGAAUGGAGUUUAUCAUG, the “polymerase ribozyme fitness (log ratio)” value was -2.43. In the case of GGAUCUUCUCGAUCUAACAAAAAAGUCAAAUCUGCCACAAAGCUUGAGAGCAUCUUCGGAUGCAGAGGCGGCAGCCUUCGGUGGCGCGAUAGCGCCAACGUUCUCAACUAUGACAUGCAAAACGCGUGCUCCGUUGAAUGGAGUUUAUCAUG it was -1.09. For GGAGCUUCUCGAUCUAACAAAAAAGACAAGUCUGCCACAAAGCUUGAGAGCAUCUUCGGAUGCAGAGGCGGCAGCCUUCGGUGGCGCGAUGGCCCCAACGUUCUCAACUAUGACACGCAAAACGCGUUCUCAGUUGAAUGGAGUUUAUCAUG the value was at most -4.2; for GGAUCUUCUCGAUCUAACAAAAAAGACAAAUCUGCCACAAAGCUUGAGAGCCUCUUCGGAUGCAGAGGCGGCAGCCUUCGGUGGCGAGAUAGCGCCAACGUUCUCAACUAUGACACGCAAAACGCGUGCUCCGUUGAAUGGAGUUUAUCAUG, at most -4.2; for GGAUCUUCUCGAUCUAACAAAAAAGACAAAUCUGCCACAAAGCUUGAGAGCAUCUUCGGAUGCAGAGGCGGCAGCCUUCGGAGGCGCGAUAGCGCCAACGUUCUCACCUAUGACACGCAAAACGCGUGCUCCGUUGAAUGGAGUUUAUCAUG, -3.72. For GGAUCUUCUCGUUCUAACAAAAAAGACAAAUCUGCCACAAAGCUUGAGAGCAUCUUCGGAUGCAGAGGCGGCAGCCUUCGGUGGCGCGAUAGGGCCAACGUUCUCAACUAUGACACGCAAAACGCGUGCUCCGUUGAAUGGAGUUUAUCAUG the value was -3.28; for GGAUCUUCUCGAUCAAACAAAAAAGACAAAUCUGCCACAAAGCUUGAGAGCAUCUUCGGAUGCAGAGGCGGCAGCCUUCGGUGUCGCGAUAGCGUCAACGUUCUCAACUAUGACACGCAAAACGCGUGCUCCGUUGAAUGGACUUUAUCAUG, -4.14. With GGAUCUUCUCGAUCUAACAAAAAAGACAAAUCUGCCACAAAGCUUGAGAGCAUCUUCGAAUGCAGAGGCGUCAGCCUUCGGUGUCGCGAUAACGCCAACGUUCUCAACUAUGACGCGGAAAACGCGUGCUCCGUUGAAUGGAGCUUAUGAUG, the “polymerase ribozyme fitness (log ratio)” value was at most -4.2. In the case of GGAUCUUCUCGAUCUAACAAAAAAGACAAAUCUGCCACAAAGCUUGAGAGCAUCUUCGGAUGCAGAGGCGGCAGUCUUCGGUGGCGCGAUAGCGCUAACGUUCUCAACUAUGACACGCAAAACGCGUGCUCCGUUGAAUGGAGUUUAUCAUG it was -0.743. As to GGAUCUUCUCGAUCUAACAAAAAAGACAAAUCUGCCUCAAAGCUUGAGAGCAUCUUCGGAUGCAGAGGCGGCAGCCUUCGGUGACGCGAUAGCGCCAACGUUCUCAACUAUGACACGUAAAUCGCGUGCUCCGUUGAAUGGAGUUUAUCAUG, the “polymerase ribozyme fitness (log ratio)” value was -1.57. In the case of GGAUCUUCUCGAUCUAACAAAAAAGACAAAUCUGCCACAAAGCUUGAGAGUAUCUUCCGAUGCAGAGGCGGCGGCCUUCGAUGGCGCGAUAGCGCCAACGUUCUCAACUAUGACAUGCAAAACGCGUGCUCCGUUGAAUGGAGUUUAUCAUG it was -0.931; in that of GGAUCUUCUCGAUCUAACGAAAAAGACAAAUCUGUCACAAAGCUUGAGAGCAUCUUCGGAUGCAGAGGCGGCAGCCUUCGGUGGCGUGAUAGCGACAACGUUCUCAACUAUGACACGCAAAACGCGUGCUCCGUUGAAUGGAGUUUAUCAUG, -2.49. Turning to GGAUCUUCUCGAUCUAACAAAAAAGACAAAUCUGCCACACAGCUUGAGAGCAUCUUCGGAUGCAGAGGCGGCAGCCUUCGGUGGCGCGAUAACGCCUACGUUCUCAACUAUGACACGCAAAACGCGUGCUCCGUUGAAUGGAGUUUAUCAUG, the “polymerase ribozyme fitness (log ratio)” value was -3.34.
